Laboratory results taken from patent US20260176319A1 (KALLYOPE, published 2026).
Blank lines part the entries; values can stand above or below the binder they belong to. Starred links: 1 amine or outer side, 2 acyl side, 3 side chain; linkers in the order of their positions; H or OH if unused. Non-standard residues stand in square brackets, D forms with d. Primed or numbered codes have the meaning given here. *: point of attachment. Trp(7-Me) = Cc1cccc2c(C[C@H](N)C(=O)O)c[nH]c12; C20 diacid = O=C(O)CCCCCCCCCCCCCCCCCCC(=O)*; d(γGlu) = O=C(O)[C@@H](CCC(=O)[*:2])N[*:1]; C18 diacid = O=C(O)CCCCCCCCCCCCCCCCC(=O)*; αMeW = C[C@](N)(Cc1c[nH]c2ccccc12)C(=O)O; γGlu = O=C(O)[C@H](CCC(=O)[*:2])N[*:1]; NMeH = CN[C@@H](Cc1c[nH]cn1)C(=O)O; Palmitoyl = CCCCCCCCCCCCCCCC(=O)*; 3Pal = N[C@@H](Cc1cccnc1)C(=O)O; Met(O) = CS(=O)CC[C@H](N)C(=O)O; Nle = CCCC[C@H](N)C(=O)O; PEG5′ = not defined here; AEEA = NCCOCCOCC(=O)O; Aib = CC(C)(N)C(=O)O; βAla = NCCC(=O)O; Sar = CNCC(=O)O

Biological target: human GRP receptor (human, UniProt P30550 1-384)
Test: cell-based or functional assay

human GRP receptor, sequence (P30550 whole entry): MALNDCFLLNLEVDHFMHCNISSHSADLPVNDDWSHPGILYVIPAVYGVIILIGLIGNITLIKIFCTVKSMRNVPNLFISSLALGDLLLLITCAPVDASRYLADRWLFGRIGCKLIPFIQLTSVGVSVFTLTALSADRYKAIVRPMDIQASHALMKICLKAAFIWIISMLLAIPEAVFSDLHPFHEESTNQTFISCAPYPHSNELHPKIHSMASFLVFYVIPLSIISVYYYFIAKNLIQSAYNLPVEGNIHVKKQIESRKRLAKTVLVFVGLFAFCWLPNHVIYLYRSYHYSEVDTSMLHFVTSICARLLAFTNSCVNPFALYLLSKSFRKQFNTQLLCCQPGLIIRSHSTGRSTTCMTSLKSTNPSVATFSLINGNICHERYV

B1: Peptide 24 (peptide)
peptide: Palmitoyl-[d(γGlu)][AEEA][AEEA]GEHWAV[Aib]HL[Nle]-NH2
SMILES: CCCCCCCCCCCCCCCC(=O)N[C@H](CCC(=O)NCCOCCOCC(=O)NCCOCCOCC(=O)NCC(=O)N[C@@H](CCC(=O)O)C(=O)N[C@@H](Cc1c[nH]cn1)C(=O)N[C@@H](Cc1c[nH]c2ccccc12)C(=O)N[C@@H](C)C(=O)N[C@H](C(=O)NC(C)(C)C(=O)N[C@@H](Cc1c[nH]cn1)C(=O)N[C@@H](CC(C)C)C(=O)N[C@@H](CCCC)C(N)=O)C(C)C)C(=O)O
- hIP1 GRPR EC50: 183 nM

B2: Peptide 25 (peptide)
peptide: GNHWAVXHLX
modifications: not fully specified; Ac-Gly-Asn-His-Trp-Ala-Val-D-Ala-His-Leu-Nle-H2N(CH2)3NH2-OEG-OEG-(α-Palmitoyl-D-γGlu)
- hIP1 GRPR EC50: 10000 nM

B3: Peptide 17 (peptide)
peptide: Palmitoyl-[d(γGlu)][AEEA][AEEA]GNHWAV[dA][3Pal]L[Nle]-NH2
SMILES: CCCCCCCCCCCCCCCC(=O)N[C@H](CCC(=O)NCCOCCOCC(=O)NCCOCCOCC(=O)NCC(=O)N[C@@H](CC(N)=O)C(=O)N[C@@H](Cc1c[nH]cn1)C(=O)N[C@@H](Cc1c[nH]c2ccccc12)C(=O)N[C@@H](C)C(=O)N[C@H](C(=O)N[C@H](C)C(=O)N[C@@H](Cc1cccnc1)C(=O)N[C@@H](CC(C)C)C(=O)N[C@@H](CCCC)C(N)=O)C(C)C)C(=O)O
- hIP1 GRPR EC50: 3 nM

B4: Peptide 21 (peptide)
peptide: Palmitoyl-[d(γGlu)]GNHWAV[Aib]HL[Nle]-NH2
SMILES: CCCCCCCCCCCCCCCC(=O)N[C@H](CCC(=O)NCC(=O)N[C@@H](CC(N)=O)C(=O)N[C@@H](Cc1c[nH]cn1)C(=O)N[C@@H](Cc1c[nH]c2ccccc12)C(=O)N[C@@H](C)C(=O)N[C@H](C(=O)NC(C)(C)C(=O)N[C@@H](Cc1c[nH]cn1)C(=O)N[C@@H](CC(C)C)C(=O)N[C@@H](CCCC)C(N)=O)C(C)C)C(=O)O
- hIP1 GRPR EC50: 120 nM

B5: Peptide 20 (peptide)
peptide: Palmitoyl-[d(γGlu)][AEEA][AEEA]GNH[Trp(7-Me)][Aib]V[dA][3Pal]L[Nle][Sar]-NH2
SMILES: CCCCCCCCCCCCCCCC(=O)N[C@H](CCC(=O)NCCOCCOCC(=O)NCCOCCOCC(=O)NCC(=O)N[C@@H](CC(N)=O)C(=O)N[C@@H](Cc1c[nH]cn1)C(=O)N[C@@H](Cc1c[nH]c2c(C)cccc12)C(=O)NC(C)(C)C(=O)N[C@H](C(=O)N[C@H](C)C(=O)N[C@@H](Cc1cccnc1)C(=O)N[C@@H](CC(C)C)C(=O)N[C@@H](CCCC)C(=O)N(C)CC(N)=O)C(C)C)C(=O)O
- hIP1 GRPR EC50: > 1000 nM

B7: Peptide 22 (peptide)
peptide: Palmitoyl-[d(γGlu)][AEEA][AEEA]GNH[Trp(7-Me)]AV[Aib]HL[Nle]-NH2
SMILES: CCCCCCCCCCCCCCCC(=O)N[C@H](CCC(=O)NCCOCCOCC(=O)NCCOCCOCC(=O)NCC(=O)N[C@@H](CC(N)=O)C(=O)N[C@@H](Cc1c[nH]cn1)C(=O)N[C@@H](Cc1c[nH]c2c(C)cccc12)C(=O)N[C@@H](C)C(=O)N[C@H](C(=O)NC(C)(C)C(=O)N[C@@H](Cc1c[nH]cn1)C(=O)N[C@@H](CC(C)C)C(=O)N[C@@H](CCCC)C(N)=O)C(C)C)C(=O)O
- hIP1 GRPR EC50: 10.3 nM

B9: Peptide 2 (peptide)
peptide: Palmitoyl-[d(γGlu)][AEEA][AEEA]GNHWAV[Aib][3Pal]L[Nle]-NH2
SMILES: CCCCCCCCCCCCCCCC(=O)N[C@H](CCC(=O)NCCOCCOCC(=O)NCCOCCOCC(=O)NCC(=O)N[C@@H](CC(N)=O)C(=O)N[C@@H](Cc1c[nH]cn1)C(=O)N[C@@H](Cc1c[nH]c2ccccc12)C(=O)N[C@@H](C)C(=O)N[C@H](C(=O)NC(C)(C)C(=O)N[C@@H](Cc1cccnc1)C(=O)N[C@@H](CC(C)C)C(=O)N[C@@H](CCCC)C(N)=O)C(C)C)C(=O)O
- hIP1 GRPR EC50: 822 nM

B10: Peptide 18 (peptide)
peptide: Palmitoyl-[d(γGlu)][AEEA][AEEA]GE[3Pal][Trp(7-Me)][Aib]V[dA][3Pal]L[Nle][Sar]-NH2
SMILES: CCCCCCCCCCCCCCCC(=O)N[C@H](CCC(=O)NCCOCCOCC(=O)NCCOCCOCC(=O)NCC(=O)N[C@@H](CCC(=O)O)C(=O)N[C@@H](Cc1cccnc1)C(=O)N[C@@H](Cc1c[nH]c2c(C)cccc12)C(=O)NC(C)(C)C(=O)N[C@H](C(=O)N[C@H](C)C(=O)N[C@@H](Cc1cccnc1)C(=O)N[C@@H](CC(C)C)C(=O)N[C@@H](CCCC)C(=O)N(C)CC(N)=O)C(C)C)C(=O)O
- hIP1 GRPR EC50: ~1000 nM

B12: Peptide 23 (peptide)
peptide: Palmitoyl-[d(γGlu)][AEEA][AEEA]GNH[Trp(7-Me)]AV[Aib][3Pal]L[Nle][Sar]-NH2
SMILES: CCCCCCCCCCCCCCCC(=O)N[C@H](CCC(=O)NCCOCCOCC(=O)NCCOCCOCC(=O)NCC(=O)N[C@@H](CC(N)=O)C(=O)N[C@@H](Cc1c[nH]cn1)C(=O)N[C@@H](Cc1c[nH]c2c(C)cccc12)C(=O)N[C@@H](C)C(=O)N[C@H](C(=O)NC(C)(C)C(=O)N[C@@H](Cc1cccnc1)C(=O)N[C@@H](CC(C)C)C(=O)N[C@@H](CCCC)C(=O)N(C)CC(N)=O)C(C)C)C(=O)O
- hIP1 GRPR EC50: 1090 nM

B13: Peptide 26 (peptide)
peptide: Palmitoyl-[d(γGlu)]GNHWAV[dA]HL[Nle]-NH2
SMILES: CCCCCCCCCCCCCCCC(=O)N[C@H](CCC(=O)NCC(=O)N[C@@H](CC(N)=O)C(=O)N[C@@H](Cc1c[nH]cn1)C(=O)N[C@@H](Cc1c[nH]c2ccccc12)C(=O)N[C@@H](C)C(=O)N[C@H](C(=O)N[C@H](C)C(=O)N[C@@H](Cc1c[nH]cn1)C(=O)N[C@@H](CC(C)C)C(=O)N[C@@H](CCCC)C(N)=O)C(C)C)C(=O)O
- hIP1 GRPR EC50: 1.8 nM

B14: Peptide 1 (peptide)
peptide: Palmitoyl-[d(γGlu)][AEEA][AEEA]GNHWAV[Aib]HL[Nle]-NH2
SMILES: CCCCCCCCCCCCCCCC(=O)N[C@H](CCC(=O)NCCOCCOCC(=O)NCCOCCOCC(=O)NCC(=O)N[C@@H](CC(N)=O)C(=O)N[C@@H](Cc1c[nH]cn1)C(=O)N[C@@H](Cc1c[nH]c2ccccc12)C(=O)N[C@@H](C)C(=O)N[C@H](C(=O)NC(C)(C)C(=O)N[C@@H](Cc1c[nH]cn1)C(=O)N[C@@H](CC(C)C)C(=O)N[C@@H](CCCC)C(N)=O)C(C)C)C(=O)O
- hIP1 GRPR EC50: 6.9 nM

B16: Peptide 19 (peptide)
peptide: Palmitoyl-[d(γGlu)][AEEA][AEEA]GEH[Trp(7-Me)][Aib]V[dA][3Pal]L[Nle][Sar]-NH2
SMILES: CCCCCCCCCCCCCCCC(=O)N[C@H](CCC(=O)NCCOCCOCC(=O)NCCOCCOCC(=O)NCC(=O)N[C@@H](CCC(=O)O)C(=O)N[C@@H](Cc1c[nH]cn1)C(=O)N[C@@H](Cc1c[nH]c2c(C)cccc12)C(=O)NC(C)(C)C(=O)N[C@H](C(=O)N[C@H](C)C(=O)N[C@@H](Cc1cccnc1)C(=O)N[C@@H](CC(C)C)C(=O)N[C@@H](CCCC)C(=O)N(C)CC(N)=O)C(C)C)C(=O)O
- hIP1 GRPR EC50: > 1000 nM

Further lines, results first:

- hIP1 GRPR EC50: 13.1 nM
B6: Peptide 277 (peptide)
peptide: {C20 diacid}-[γGlu][γGlu][AEEA][AEEA]SEH[Trp(7-Me)]AV[BABA][NMeH]L[Nle]-NH2

- hIP1 GRPR EC50: 12.3 nM
B8: Peptide 275 (peptide)
peptide: {C20 diacid}-[γGlu][γGlu][PEG5′]GEH[Trp(7-Me)]AV[BABA]HL[Nle]-NH2

- hIP1 GRPR EC50: 63.8 nM
B11: Peptide 276 (peptide)
peptide: {C20 diacid}-[γGlu][AEEA][AEEA]GQHWAV[βAla]HL[Met(O)]-NH2
SMILES: CC(C)C[C@H](NC(=O)[C@H](Cc1c[nH]cn1)NC(=O)CCNC(=O)[C@@H](NC(=O)[C@H](C)NC(=O)[C@H](Cc1c[nH]c2ccccc12)NC(=O)[C@H](Cc1c[nH]cn1)NC(=O)[C@H](CCC(N)=O)NC(=O)CNC(=O)COCCOCCNC(=O)COCCOCCNC(=O)CC[C@H](NC(=O)CCCCCCCCCCCCCCCCCCC(=O)O)C(=O)O)C(C)C)C(=O)N[C@@H](CCS(C)=O)C(N)=O

- hIP1 GRPR EC50: 4.9 nM
B15: Peptide 274 (peptide)
peptide: {C20 diacid}-[γGlu][γGlu][AEEA][AEEA]GNH[αMeW]AV[βAla]HL[Nle]-NH2
SMILES: CCCC[C@H](NC(=O)[C@H](CC(C)C)NC(=O)[C@H](Cc1c[nH]cn1)NC(=O)CCNC(=O)[C@@H](NC(=O)[C@H](C)NC(=O)[C@](C)(Cc1c[nH]c2ccccc12)NC(=O)[C@H](Cc1c[nH]cn1)NC(=O)[C@H](CC(N)=O)NC(=O)CNC(=O)COCCOCCNC(=O)COCCOCCNC(=O)CC[C@H](NC(=O)CC[C@H](NC(=O)CCCCCCCCCCCCCCCCCCC(=O)O)C(=O)O)C(=O)O)C(C)C)C(N)=O

- hIP1 GRPR EC50: 10.8 nM
B17: Peptide 278 (peptide)
peptide: {C20 diacid}-[γGlu][γGlu][AEEA][AEEA]GDH[Trp(7-Me)]AV[BABA][NMeH]L[Nle]-NH2

- hIP1 GRPR EC50: 9.9 nM
B18: Peptide 46 (peptide)
peptide: {C18 diacid}-[dE][AEEA][AEEA]GNH[Trp(7-Me)]AV[dA]HL[Nle]-NH2
SMILES: CCCC[C@H](NC(=O)[C@H](CC(C)C)NC(=O)[C@H](Cc1c[nH]cn1)NC(=O)[C@@H](C)NC(=O)[C@@H](NC(=O)[C@H](C)NC(=O)[C@H](Cc1c[nH]c2c(C)cccc12)NC(=O)[C@H](Cc1c[nH]cn1)NC(=O)[C@H](CC(N)=O)NC(=O)CNC(=O)COCCOCCNC(=O)COCCOCCNC(=O)[C@@H](CCC(=O)O)NC(=O)CCCCCCCCCCCCCCCCC(=O)O)C(C)C)C(N)=O

- hIP1 GRPR EC50: 216 nM
B19: Peptide 47 (peptide)
peptide: {C18 diacid}-[d(γGlu)][AEEA][AEEA]GNHWAV[dA]HL[Nle][Sar]-NH2
SMILES: CCCC[C@H](NC(=O)[C@H](CC(C)C)NC(=O)[C@H](Cc1c[nH]cn1)NC(=O)[C@@H](C)NC(=O)[C@@H](NC(=O)[C@H](C)NC(=O)[C@H](Cc1c[nH]c2ccccc12)NC(=O)[C@H](Cc1c[nH]cn1)NC(=O)[C@H](CC(N)=O)NC(=O)CNC(=O)COCCOCCNC(=O)COCCOCCNC(=O)CC[C@@H](NC(=O)CCCCCCCCCCCCCCCCC(=O)O)C(=O)O)C(C)C)C(=O)N(C)CC(N)=O
